Data on 8 proteins can be found in paper PMC10341545, “Structural and Biochemical Investigation of Selected Pathogenic Mutants of the Human Dihydrolipoamide Dehydrogenase” (International Journal of Molecular Sciences, 2023).

To fix the notation:
B1: K37E-hLADH (enzyme, human, UniProt P09622 36-509, looked up)
chain: ADQPIDADVTVIGSGPGGYVAAIKAAQLGFKTVCIEENETLGGTCLNVGCIPSKALLNNSHYYHMAHGKDFASRGIEMSEVRLNLDKMMEQKSTAVKALTGGIAHLFKQNKVVHVNGYGKITGKNQVTATKADGGTQVIDTKNILIATGSEVTPFPGITIDEDTIVSSTGALSLKKVPEKMVVIGAGVIGVELGSVWQRLGADVTAVEFLGHVGGVGIDMEISKNFQRILQKQGFKFKLNTKVTGATKKSDGKIDVSIEAASGGKAEVITCDVLLVCIGRRPFTKNLGLEELGIELDPRGRIPVNTRFQTKIPNIYAIGDVVAGPMLAHKAEDEGIICVEGMAGGAVHIDYNCVPSVIYTHPEVAWVGKSEEQLKEEGIEYKVGKFPFAANSRAKTNADTDGMVKILGQKSTDRVLGAHILGPGAGEMVNEAALALEYGASCEDIARVCHAHPTLSEAFREANLAASFGKSINF
notes: Dihydrolipoamide dehydrogenase, human, pathogenic variant K37E; Clinically reported disease-causing variant
B2: I445M-hLADH (enzyme, human, UniProt P09622 36-509, looked up)
chain: ADQPIDADVTVIGSGPGGYVAAIKAAQLGFKTVCIEKNETLGGTCLNVGCIPSKALLNNSHYYHMAHGKDFASRGIEMSEVRLNLDKMMEQKSTAVKALTGGIAHLFKQNKVVHVNGYGKITGKNQVTATKADGGTQVIDTKNILIATGSEVTPFPGITIDEDTIVSSTGALSLKKVPEKMVVIGAGVIGVELGSVWQRLGADVTAVEFLGHVGGVGIDMEISKNFQRILQKQGFKFKLNTKVTGATKKSDGKIDVSIEAASGGKAEVITCDVLLVCIGRRPFTKNLGLEELGIELDPRGRIPVNTRFQTKIPNIYAIGDVVAGPMLAHKAEDEGIICVEGMAGGAVHIDYNCVPSVIYTHPEVAWVGKSEEQLKEEGIEYKVGKFPFAANSRAKTNADTDGMVKILGQKSTDRVLGAHILGPGAGEMVNEAALALEYGASCEDMARVCHAHPTLSEAFREANLAASFGKSINF
notes: Dihydrolipoamide dehydrogenase, human, pathogenic variant I445M; Clinically reported disease-causing variant
B3: I12T-hLADH (enzyme, human, UniProt P09622 36-509, looked up)
chain: ADQPIDADVTVTGSGPGGYVAAIKAAQLGFKTVCIEKNETLGGTCLNVGCIPSKALLNNSHYYHMAHGKDFASRGIEMSEVRLNLDKMMEQKSTAVKALTGGIAHLFKQNKVVHVNGYGKITGKNQVTATKADGGTQVIDTKNILIATGSEVTPFPGITIDEDTIVSSTGALSLKKVPEKMVVIGAGVIGVELGSVWQRLGADVTAVEFLGHVGGVGIDMEISKNFQRILQKQGFKFKLNTKVTGATKKSDGKIDVSIEAASGGKAEVITCDVLLVCIGRRPFTKNLGLEELGIELDPRGRIPVNTRFQTKIPNIYAIGDVVAGPMLAHKAEDEGIICVEGMAGGAVHIDYNCVPSVIYTHPEVAWVGKSEEQLKEEGIEYKVGKFPFAANSRAKTNADTDGMVKILGQKSTDRVLGAHILGPGAGEMVNEAALALEYGASCEDIARVCHAHPTLSEAFREANLAASFGKSINF
notes: Dihydrolipoamide dehydrogenase, human, pathogenic variant I12T; Also expressed with an N-terminal Twin-Strep-tag to increase the yield; source: very low-expressing, eluted with contaminating proteins
B4: G194C-hLADH (enzyme, human, UniProt P09622 36-509, looked up)
chain: ADQPIDADVTVIGSGPGGYVAAIKAAQLGFKTVCIEKNETLGGTCLNVGCIPSKALLNNSHYYHMAHGKDFASRGIEMSEVRLNLDKMMEQKSTAVKALTGGIAHLFKQNKVVHVNGYGKITGKNQVTATKADGGTQVIDTKNILIATGSEVTPFPGITIDEDTIVSSTGALSLKKVPEKMVVIGAGVIGVELCSVWQRLGADVTAVEFLGHVGGVGIDMEISKNFQRILQKQGFKFKLNTKVTGATKKSDGKIDVSIEAASGGKAEVITCDVLLVCIGRRPFTKNLGLEELGIELDPRGRIPVNTRFQTKIPNIYAIGDVVAGPMLAHKAEDEGIICVEGMAGGAVHIDYNCVPSVIYTHPEVAWVGKSEEQLKEEGIEYKVGKFPFAANSRAKTNADTDGMVKILGQKSTDRVLGAHILGPGAGEMVNEAALALEYGASCEDIARVCHAHPTLSEAFREANLAASFGKSINF
notes: Dihydrolipoamide dehydrogenase, human, pathogenic variant G194C; Clinically reported disease-causing variant
B5: G426E-hLADH (enzyme, human, UniProt P09622 36-509, looked up)
chain: ADQPIDADVTVIGSGPGGYVAAIKAAQLGFKTVCIEKNETLGGTCLNVGCIPSKALLNNSHYYHMAHGKDFASRGIEMSEVRLNLDKMMEQKSTAVKALTGGIAHLFKQNKVVHVNGYGKITGKNQVTATKADGGTQVIDTKNILIATGSEVTPFPGITIDEDTIVSSTGALSLKKVPEKMVVIGAGVIGVELGSVWQRLGADVTAVEFLGHVGGVGIDMEISKNFQRILQKQGFKFKLNTKVTGATKKSDGKIDVSIEAASGGKAEVITCDVLLVCIGRRPFTKNLGLEELGIELDPRGRIPVNTRFQTKIPNIYAIGDVVAGPMLAHKAEDEGIICVEGMAGGAVHIDYNCVPSVIYTHPEVAWVGKSEEQLKEEGIEYKVGKFPFAANSRAKTNADTDGMVKILGQKSTDRVLGAHILGPGAEEMVNEAALALEYGASCEDIARVCHAHPTLSEAFREANLAASFGKSINF
notes: Dihydrolipoamide dehydrogenase, human, pathogenic variant G426E; Clinically reported disease-causing variant
B6: R447G-hLADH (enzyme, human, UniProt P09622 36-509, looked up)
chain: ADQPIDADVTVIGSGPGGYVAAIKAAQLGFKTVCIEKNETLGGTCLNVGCIPSKALLNNSHYYHMAHGKDFASRGIEMSEVRLNLDKMMEQKSTAVKALTGGIAHLFKQNKVVHVNGYGKITGKNQVTATKADGGTQVIDTKNILIATGSEVTPFPGITIDEDTIVSSTGALSLKKVPEKMVVIGAGVIGVELGSVWQRLGADVTAVEFLGHVGGVGIDMEISKNFQRILQKQGFKFKLNTKVTGATKKSDGKIDVSIEAASGGKAEVITCDVLLVCIGRRPFTKNLGLEELGIELDPRGRIPVNTRFQTKIPNIYAIGDVVAGPMLAHKAEDEGIICVEGMAGGAVHIDYNCVPSVIYTHPEVAWVGKSEEQLKEEGIEYKVGKFPFAANSRAKTNADTDGMVKILGQKSTDRVLGAHILGPGAGEMVNEAALALEYGASCEDIAGVCHAHPTLSEAFREANLAASFGKSINF
notes: Dihydrolipoamide dehydrogenase, human, pathogenic variant R447G; Clinically reported disease-causing variant
B7: I318T-hLADH (enzyme, human, UniProt P09622 36-509, looked up)
chain: ADQPIDADVTVIGSGPGGYVAAIKAAQLGFKTVCIEKNETLGGTCLNVGCIPSKALLNNSHYYHMAHGKDFASRGIEMSEVRLNLDKMMEQKSTAVKALTGGIAHLFKQNKVVHVNGYGKITGKNQVTATKADGGTQVIDTKNILIATGSEVTPFPGITIDEDTIVSSTGALSLKKVPEKMVVIGAGVIGVELGSVWQRLGADVTAVEFLGHVGGVGIDMEISKNFQRILQKQGFKFKLNTKVTGATKKSDGKIDVSIEAASGGKAEVITCDVLLVCIGRRPFTKNLGLEELGIELDPRGRIPVNTRFQTKIPNIYATGDVVAGPMLAHKAEDEGIICVEGMAGGAVHIDYNCVPSVIYTHPEVAWVGKSEEQLKEEGIEYKVGKFPFAANSRAKTNADTDGMVKILGQKSTDRVLGAHILGPGAGEMVNEAALALEYGASCEDIARVCHAHPTLSEAFREANLAASFGKSINF
notes: Dihydrolipoamide dehydrogenase, human, pathogenic variant I318T; Clinically reported disease-causing variant; mutation verified by MS
B8: I358T-hLADH (enzyme, human, UniProt P09622 36-509, looked up)
chain: ADQPIDADVTVIGSGPGGYVAAIKAAQLGFKTVCIEKNETLGGTCLNVGCIPSKALLNNSHYYHMAHGKDFASRGIEMSEVRLNLDKMMEQKSTAVKALTGGIAHLFKQNKVVHVNGYGKITGKNQVTATKADGGTQVIDTKNILIATGSEVTPFPGITIDEDTIVSSTGALSLKKVPEKMVVIGAGVIGVELGSVWQRLGADVTAVEFLGHVGGVGIDMEISKNFQRILQKQGFKFKLNTKVTGATKKSDGKIDVSIEAASGGKAEVITCDVLLVCIGRRPFTKNLGLEELGIELDPRGRIPVNTRFQTKIPNIYAIGDVVAGPMLAHKAEDEGIICVEGMAGGAVHIDYNCVPSVTYTHPEVAWVGKSEEQLKEEGIEYKVGKFPFAANSRAKTNADTDGMVKILGQKSTDRVLGAHILGPGAGEMVNEAALALEYGASCEDIARVCHAHPTLSEAFREANLAASFGKSINF
notes: Dihydrolipoamide dehydrogenase, human, pathogenic variant I358T; Clinically reported disease-causing variant; mutation verified by MS

The first data set concerns the molecule itself. In words: SEC; calibrated size-exclusion chromatography (cSEC); HiPrep 16/60 Sephacryl S-200 HR, 4 °C, 150 mM ammonium acetate, pH 6.80, 0.5 mL/min; 40–780 μg protein loaded; dimer to monomers. On the technique in general: In gel filtration, larger molecules generally elute earlier.
B1: the binding result is “binds”.
The same measure, in the same setting: for B2 the value was “binds”; for B3, “binds”.
On the same count and under the same terms, for B4 the value was “binds”; for B5, “binds”.
On the same count and under the same terms, next, B6: “binds”.

Another data set concerns the molecule itself. Briefly: crystal structure; sitting drop; 0.2 M MgCl2, PEG 3350, 0.1 M Bis-Tris pH 6.7; space group C 1 2 1; two monomers (the homodimer) in the asymmetric unit.
As to B7, the binding result is reported as “binds”.
On the same count and under the same terms, next, B8: “binds”.
